Experimental data published in patent publication US20240189392A1 (AMBRX, published 2024).

Key:
Assay in all cases: cell-based or functional assay
[1] = target: T1, rat RXFP1 (rat, UniProt Q6R6I6 1-758)
T1 sequence (looked up): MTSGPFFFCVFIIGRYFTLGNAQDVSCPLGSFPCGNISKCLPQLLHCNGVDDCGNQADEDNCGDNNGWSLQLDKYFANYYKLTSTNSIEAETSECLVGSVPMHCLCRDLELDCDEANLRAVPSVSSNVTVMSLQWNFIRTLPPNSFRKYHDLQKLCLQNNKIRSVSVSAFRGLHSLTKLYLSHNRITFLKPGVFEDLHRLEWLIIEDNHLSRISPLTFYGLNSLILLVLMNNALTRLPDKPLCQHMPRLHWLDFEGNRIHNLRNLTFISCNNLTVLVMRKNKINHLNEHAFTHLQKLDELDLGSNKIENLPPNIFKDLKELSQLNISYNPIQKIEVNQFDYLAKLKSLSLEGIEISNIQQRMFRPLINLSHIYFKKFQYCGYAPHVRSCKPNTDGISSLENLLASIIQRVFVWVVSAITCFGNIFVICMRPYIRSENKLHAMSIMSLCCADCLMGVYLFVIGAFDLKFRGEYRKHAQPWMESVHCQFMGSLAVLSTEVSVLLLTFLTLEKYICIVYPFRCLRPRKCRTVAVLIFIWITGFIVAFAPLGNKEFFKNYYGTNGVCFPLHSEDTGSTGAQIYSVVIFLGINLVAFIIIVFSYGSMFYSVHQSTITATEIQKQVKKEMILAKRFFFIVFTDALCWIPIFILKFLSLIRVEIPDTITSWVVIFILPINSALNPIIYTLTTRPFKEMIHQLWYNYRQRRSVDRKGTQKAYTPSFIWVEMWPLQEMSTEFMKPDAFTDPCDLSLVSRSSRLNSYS

[2] = target: T2, mouse RXFP1 (mouse, UniProt Q6R6I7 1-758)
T2 sequence (looked up): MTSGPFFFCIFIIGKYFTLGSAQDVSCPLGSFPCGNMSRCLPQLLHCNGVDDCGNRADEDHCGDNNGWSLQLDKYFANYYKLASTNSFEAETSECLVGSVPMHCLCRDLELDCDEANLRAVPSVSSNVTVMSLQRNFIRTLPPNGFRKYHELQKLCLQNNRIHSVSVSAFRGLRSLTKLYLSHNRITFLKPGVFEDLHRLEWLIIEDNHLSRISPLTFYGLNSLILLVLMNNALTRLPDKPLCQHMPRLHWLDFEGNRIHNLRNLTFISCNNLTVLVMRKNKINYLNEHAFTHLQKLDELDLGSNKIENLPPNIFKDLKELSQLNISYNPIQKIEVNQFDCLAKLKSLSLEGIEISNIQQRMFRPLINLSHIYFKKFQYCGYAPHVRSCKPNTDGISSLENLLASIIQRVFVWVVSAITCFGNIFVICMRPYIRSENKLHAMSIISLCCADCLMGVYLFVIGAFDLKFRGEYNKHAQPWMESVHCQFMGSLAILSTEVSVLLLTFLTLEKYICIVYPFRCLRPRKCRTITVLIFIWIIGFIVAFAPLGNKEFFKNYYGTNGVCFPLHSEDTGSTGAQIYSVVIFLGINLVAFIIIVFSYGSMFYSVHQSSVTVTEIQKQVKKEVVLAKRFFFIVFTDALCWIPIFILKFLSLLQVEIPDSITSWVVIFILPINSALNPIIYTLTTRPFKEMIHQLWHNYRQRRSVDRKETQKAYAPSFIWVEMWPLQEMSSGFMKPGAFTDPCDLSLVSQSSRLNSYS

[3] = target: dog RXFP1 (dog)
[4] = target: T3, human RXFP1 (human, UniProt Q9HBX9 1-757)
T3 sequence (looked up): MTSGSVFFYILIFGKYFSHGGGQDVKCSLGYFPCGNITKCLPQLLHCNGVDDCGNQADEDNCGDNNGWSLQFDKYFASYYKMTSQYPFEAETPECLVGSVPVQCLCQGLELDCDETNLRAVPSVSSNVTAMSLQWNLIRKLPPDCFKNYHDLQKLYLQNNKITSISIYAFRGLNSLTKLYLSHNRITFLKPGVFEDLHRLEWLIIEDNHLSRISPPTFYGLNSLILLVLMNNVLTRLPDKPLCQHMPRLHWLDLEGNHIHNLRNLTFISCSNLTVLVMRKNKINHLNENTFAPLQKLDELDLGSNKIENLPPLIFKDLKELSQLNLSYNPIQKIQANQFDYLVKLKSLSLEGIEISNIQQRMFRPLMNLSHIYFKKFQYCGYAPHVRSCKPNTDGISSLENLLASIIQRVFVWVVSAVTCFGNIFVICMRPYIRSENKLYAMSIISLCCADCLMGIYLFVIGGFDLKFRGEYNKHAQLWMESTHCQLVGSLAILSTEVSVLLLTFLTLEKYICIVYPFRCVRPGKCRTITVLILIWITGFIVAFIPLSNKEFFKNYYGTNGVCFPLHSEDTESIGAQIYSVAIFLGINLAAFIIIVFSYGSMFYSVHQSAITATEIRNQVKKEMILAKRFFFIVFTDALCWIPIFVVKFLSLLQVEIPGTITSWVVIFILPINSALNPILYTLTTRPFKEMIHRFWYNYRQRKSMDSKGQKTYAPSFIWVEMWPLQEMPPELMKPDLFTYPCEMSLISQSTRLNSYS

B1: RLX-A-AQ1-20KPEG (ligand)
chain 1: XLYSALANKCCHVGCTKRSLARFC
chain 2: ASWMEEVIKLCGRELVRAQIAICGMSTWS
modifications: pACF (para-acetylphenylalanine) at position 1 of the A chain, linked to a 20 kDA PEG via an oxime linkage
Potency Ratio (RLX-A-AQ1-20KPEG/WT-RLX), cAMP assay, rat RXFP1/CHO-K1 cells [1]: 32 fold | RLX-A-AQ1-20KPEG Potency Ratio (hRXFP 1-1.0), cAMP assay [1]: 0.34 ratio | cAMP Assay EC50 (nM), rat RXFP1/CHO-K1 cells [1]: 1.1 nM | Potency Ratio (RLX-A-AQ1-20KPEG/WT-RLX), cAMP assay, mouse RXFP1/CHO-K1 cells [2]: 22 fold | RLX-A-AQ1-20KPEG Potency Ratio (hRXFP 1-1.0), cAMP assay [2]: 0.66 ratio | cAMP Assay EC50 (nM), mouse RXFP1/CHO-K1 cells [2]: 2.1 nM | Potency Ratio (RLX-A-AQ1-20KPEG/WT-RLX), cAMP assay, dog RXFP1/CHO-K1 cells [3]: 27 fold | RLX-A-AQ1-20KPEG Potency Ratio (hRXFP 1-1.0), cAMP assay [3]: 4.7 ratio | cAMP Assay EC50 (nM), dog RXFP1/CHO-K1 cells [3]: 15 nM | Functional Assay Raw EC50 Values [ng/mL]; cAMP increase in THP-1 cells, 11/5/2010 [4]: 38 ng/mL
